Data on twelve substances can be found in the supplement of paper PMC5998384.

In data set [1] the test system is HeLa Kyoto. Put plainly: solubility change mitosis vs G1/S (difference of NP-40 vs SDS log2 ratios) (log2 ratio difference); higher = more soluble in mitosis.
Data set [2] concerns HeLa Kyoto. The experiment in a line: solubility in G1/S (NP-40 vs SDS abundance) (log2 ratio); higher = more soluble. To be noted: cell cycle stage: G1/S.
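For solubility change mitosis vs G1/S (difference of NP-40 vs SDS log2 ratios) in this document: synchronized HeLa Kyoto cells (double thymidine block for G1/S, nocodazole release for mitosis), protein amounts in NP-40 versus SDS lysates quantified by mass spectrometry, three biological replicates.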
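For solubility in G1/S (NP-40 vs SDS abundance) in this document: HeLa Kyoto cells arrested at G1/S by double thymidine block, proteins quantified by TMT10plex mass spectrometry in mild NP-40 versus SDS extracts, three biological replicates.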

Take “MGNRGMEDLIPLVNRLQDAFSAIGQNADLDLPQIAVVGGQSAGKSSVLENFVGRDFLPRGSGIVTRRPLVLQLVNATTEYAEFLHCKGKKFTDFEEVRLEIEAETDRVTGTNKGISPVPINLRVYSPHVLNLTLVDLPGMTKVPVGDQPPDIEFQIRDMLMQFVTKENCLILAVSPANSDLANSDALKVAKEVDPQGQRTIGVITKLDLMDEGTDARDVLENKLLPLRRGYIGVVNRSQKDIDGKKDITAALAAERKFFLSHPSYRHLADRMGTPYLQKVLNQQLTNHIRDTLPGLRNKLQSQLLSIEKEVEEYKNFRPDDPARKTKALLQMVQQFAVDFEKRIEGSGDQIDTYELSGGARINRIFHERFPFELVKMEFDEKELRREISYAIKNIHGIRTGLFTPDMAFETIVKKQVKKIREPCLKCVDMVISELISTVRQCTKKLQQYPRLREEMERIVTTHIREREGRTKEQVMLLIDIELAYMNTNHEDFIGFANAQQRSNQMNKKKTSGNQDEILVIRKGWLTINNIGIMKGGSKEYWFVLTAENLSWYKDDEEKEKKYMLSVDNLKLRDVEKGFMSSKHIFALFNTEQRNVYKDYRQLELACETQEEVDSWKASFLRAGVYPERVGDKEKASETEENGSDSFMHSMDPQLERQVETIRNLVDSYMAIVNKTVRDLMPKTIMHLMINNTKEFIFSELLANLYSCGDQNTLMEESAEQAQRRDEMLRMYHALKEALSIIGDINTTTVSTPMPPPVDDSWLQVQSVPAGRRSPTSSPTPQRRAPAVPPARPGSRGPAPGPPPAGSALGGAPPVPSRPGASPDPFGPPPQVPSRPNRAPPGVPSRSGQASPSRPESPRPPFDL [DNM1]”: the “solubility change mitosis (log2)” value with HeLa Kyoto [1] is -0.0969. In addition, the “solubility in G1/S (log2)” value in the data set on HeLa Kyoto [2] worked out at 0.233.

Take “MGPKRRQLTFREKSRIIQEVEENPDLRKGEIARRFNIPPSTLSTILKNKRAILASERKYGVASTCRKTNKLSPYDKLEGLLIAWFQQIRAAGLPVKGIILKEKALRIAEELGMDDFTASNGWLDRFRRRHGVVSCSGVARARARNAAPRTPAAPASPAAVPSEGSGGSTTGWRAREEQPPSVAEGYASQDVFSATETSLWYDFLPDQAAGLCGGDGRPRQATQRLSVLLCANADGSEKLPPLVAGKSAKPRAGQAGLPCDYTANSKGGVTTQALAKYLKALDTRMAAESRRVLLLAGRLAAQSLDTSGLRHVQLAFFPPGTVHPLERGVVQQVKGHYRQAMLLKAMAALEGQDPSGLQLGLTEALHFVAAAWQAVEPSDIAACFREAGFGGGPNATITTSLKSEGEEEEEEEEEEEEEEGEGEEEEEEGEEEEEEGGEGEELGEEEEVEEEGDVDSDEEEEEDEESSSEGLEAEDWAQGVVEAGGSFGAYGAQEEAQCPTLHFLEGGEDSDSDSEEEDDEEEDDEDEDDDDDEEDGDEVPVPSFGEAMAYFAMVKRYLTSFPIDDRVQSHILHLEHDLVHVTRKNHARQAGVRGLGHQS [CENPB]”: in the data set on HeLa Kyoto [1], the “solubility change mitosis (log2)” value is -0.105. In addition, the “solubility in G1/S (log2)” value in the data set with HeLa Kyoto [2] is -0.711.

Regarding “MGQCVTKCKNPSSTLGSKNGDREPSNKSHSRRGAGHREEQVPPCGKPGGDILVNGTKKAEAATEACQLPTSSGDAGRESKSNAEESSLQRLEELFRRYKDEREDAILEEGMERFCNDLCVDPTEFRVLLLAWKFQAATMCKFTRKEFFDGCKAISADSIDGICARFPSLLTEAKQEDKFKDLYRFTFQFGLDSEEGQRSLHREIAIALWKLVFTQNNPPVLDQWLNFLTENPSGIKGISRDTWNMFLNFTQVIGPDLSNYSEDEAWPSLFDTFVEWEMERRKREGEGRGALSSGPEGLCPEEQT [DCUN1D3]”, the “solubility change mitosis (log2)” value in the data set with HeLa Kyoto [1] was -0.131. Further, the “solubility in G1/S (log2)” value in the data set on HeLa Kyoto [2] came out at 0.0421.

“MGSAFERVVRRVVQELDHGGEFIPVTSLQSSTGFQPYCLVVRKPSSSWFWKPRYKCVNLSIKDILEPDAAEPDVQRGRSFHFYDAMDGQIQGSVELAAPGQAKIAGGAAVSDSSSTSMNVYSLSVDPNTWQTLLHERHLRQPEHKVLQQLRSRGDNVYVVTEVLQTQKEVEVTRTHKREGSGRFSLPGATCLQGEGQGHLSQKKTVTIPSGSTLAFRVAQLVIDSDLDVLLFPDKKQRTFQPPATGHKRSTSEGAWPQLPSGLSMMRCLHNFLTDGVPAEGAFTEDFQGLRAEVETISKELELLDRELCQLLLEGLEGVLRDQLALRALEEALEQGQSLGPVEPLDGPAGAVLECLVLSSGMLVPELAIPVVYLLGALTMLSETQHKLLAEALESQTLLGPLELVGSLLEQSAPWQERSTMSLPPGLLGNSWGEGAPAWVLLDECGLELGEDTPHVCWEPQAQGRMCALYASLALLSGLSQEPH [GSDMD]”: in the data set with HeLa Kyoto [1], the “solubility change mitosis (log2)” value is -0.218. The “solubility in G1/S (log2)” value in the data set with HeLa Kyoto [2] is 0.121.

For the substance “MGVDFDVKTFCHNLRATKPPYECPVETCRKVYKSYSGIEYHLYHYDHDNPPPPQQTPLRKHKKKGRQSRPANKQSPSPSEVSQSPGREVMSYAQAQRMVEVDLHGRVHRISIFDNLDVVSEDEEAPEEAPENGSNKENTETPAATPKSGKHKNKEKRKDSNHHHHHNVSASTTPKLPEVVYRELEQDTPDAPPRPTSYYRYIEKSAEELDEEVEYDMDEEDYIWLDIMNERRKTEGVSPIPQEIFEYLMDRLEKESYFESHNKGDPNALVDEDAVCCICNDGECQNSNVILFCDMCNLAVHQECYGVPYIPEGQWLCRRCLQSPSRAVDCALCPNKGGAFKQTDDGRWAHVVCALWIPEVCFANTVFLEPIDSIEHIPPARWKLTCYICKQRGSGACIQCHKANCYTAFHVTCAQQAGLYMKMEPVRETGANGTSFSVRKTAYCDIHTPPGSARRLPALSHSEGEEDEDEEEDEGKGWSSEKVKKAKAKSRIKMKKARKILAEKRAAAPVVSVPCIPPHRLSKITNRLTIQRKSQFMQRLHSYWTLKRQSRNGVPLLRRLQTHLQSQRNCDQVGRDSEDKNWALKEQLKSWQRLRHDLERARLLVELIRKREKLKRETIKVQQIAMEMQLTPFLILLRKTLEQLQEKDTGNIFSEPVPLSEVPDYLDHIKKPMDFFTMKQNLEAYRYLNFDDFEEDFNLIVSNCLKYNAKDTIFYRAAVRLREQGGAVLRQARRQAEKMGIDFETGMHIPHSLAGDEATHHTEDAAEEERLVLLENQKHLPVEEQLKLLLERLDEVNASKQSVGRSRRAKMIKKEMTALRRKLAHQRETGRDGPERHGPSSRGSLTPHPAACDKDGQTDSAAEESSSQETSKGLGPNMSSTPAHEVGRRTSVLFSKKNPKTAGPPKRPGRPPKNRESQMTPSHGGSPVGPPQLPIMSSLRQRKRGRSPRPSSSSDSDSDKSTEDPPMDLPANGFSGGNQPVKKSFLVYRNDCSLPRSSSDSESSSSSSSSAASDRTSTTPSKQGRGKPSFSRGTFPEDSSEDTSGTENEAYSVGTGRGVGHSMVRKSLGRGAGWLSEDEDSPLDALDLVWAKCRGYPSYPALIIDPKMPREGMFHHGVPIPVPPLEVLKLGEQMTQEAREHLYLVLFFDNKRTWQWLPRTKLVPLGVNQDLDKEKMLEGRKSNIRKSVQIAYHRALQHRSKVQGEQSSETSDSD [BRPF1]”, in the data set on HeLa Kyoto [1], the “solubility change mitosis (log2)” value was determined as 0.44. The “solubility in G1/S (log2)” value in the data set with HeLa Kyoto [2] was -1.3.

In the case of “MHGHGGYDSDFSDDERCGESSKRKKRTVEDDLLLQKPFQKEKHGKVAHKQVAAELLDREEARNRRFHLIAMDAYQRHTKFVNDYILYYGGKKEDFKRLGENDKTDLDVIRENHRFLWNEEDEMDMTWEKRLAKKYYDKLFKEYCIADLSKYKENKFGFRWRVEKEVISGKGQFFCGNKYCDKKEGLKSWEVNFGYIEHGEKRNALVKLRLCQECSIKLNFHHRRKEIKSKKRKDKTKKDCEESSHKKSRLSSAEEASKKKDKGHSSSKKSEDSLLRNSDEEESASESELWKGPLPETDEKSQEEEFDEYFQDLFL [FRA10AC1]”, the “solubility change mitosis (log2)” value in the data set with HeLa Kyoto [1] was 0.365. For the same substance, in the data set with HeLa Kyoto [2], the “solubility in G1/S (log2)” value is -0.47.

Regarding “MHPGGGPSRAERLELGLGRERPAKAIFLHRRPGEGGGRERCLRCGHVCVRRGPGPREAVPSGRPRPDTLTPPWVRQRAVTGTFCASWTPLRNRRAQRMATDMQRKRSSECLDGTLTPSDGQSMERAESPTPGMAQGMEPGAGQEGAMFVHARSYEDLTESEDGAASGDSHKEGTRGPPPLPTDMRQISQDFSELSTQLTGVARDLQEEMLPGSSEDWLEPPGAVGRPATEPPREGTTEGDEEDATEAWRLHQKHVFVLSEAGKPVYSRYGSEEALSSTMGVMVALVSFLEADKNAIRSIHADGYKVVFVRRSPLVLVAVARTRQSAQELAQELLYIYYQILSLLTGAQLSHIFQQKQNYDLRRLLSGSERITDNLLQLMARDPSFLMGAARCLPLAAAVRDTVSASLQQARARSLVFSILLARNQLVALVRRKDQFLHPIDLHLLFNLISSSSSFREGEAWTPVCLPKFNAAGFFHAHISYLEPDTDLCLLLVSTDREDFFAVSDCRRRFQERLRKRGAHLALREALRTPYYSVAQVGIPDLRHFLYKSKSSGLFTSPEIEAPYTSEEEQERLLGLYQYLHSRAHNASRPLKTIYYTGPNENLLAWVTGAFELYMCYSPLGTKASAVSAIHKLMRWIRKEEDRLFILTPLTY [MON1A]”, the “solubility change mitosis (log2)” value in the data set on HeLa Kyoto [1] was -0.081. The “solubility in G1/S (log2)” value in the data set on HeLa Kyoto [2] was determined as 0.0361.

MICALL2: the “solubility change mitosis (log2)” value with HeLa Kyoto [1] was -0.0133. The “solubility in G1/S (log2)” value in the data set with HeLa Kyoto [2] is 0.151.

In the case of “MIEVVCNDRLGKKVRVKCNTDDTIGDLKKLIAAQTGTRWNKIVLKKWYTIFKDHVSLGDYEIHDGMNLELYYQ [UBL5]”, the “solubility change mitosis (log2)” value in the data set on HeLa Kyoto [1] was determined as 0.566. Besides, the “solubility in G1/S (log2)” value in the data set on HeLa Kyoto [2] is -1.06.

In the case of “MISAPDVVAFTKEEEYEEEPYNEPALPEEYSVPLFPFASQGANPWSKLSGAKFSRDFILISEFSEQVGPQPLLTIPNDTKVFGTFDLNYFSLRIMSVDYQASFVGHPPGSAYPKLNFVEDSKVVLGDSKEGAFAYVHHLTLYDLEARGFVRPFCMAYISADQHKIMQQFQELSAEFSRASECLKTGNRKAFAGELEKKLKDLDYTRTVLHTETEIQKKANDKGFYSSQAIEKANELASVEKSIIEHQDLLKQIRSYPHRKLKGHDLCPGEMEHIQDQASQASTTSNPDESADTDLYTCRPAYTPKLIKAKSTKCFDKKLKTLEELCDTEYFTQTLAQLSHIEHMFRGDLCYLLTSQIDRALLKQQHITNFLFEDFVEVDDRMVEKQESIPSKPSQDRPPSSSLEECPIPKVLISVGSYKSSVESVLIKMEQELGDEEYKEVEVTELSSFDPQENLDYLDMDMKGSISSGESIEVLGTEKSTSVLSKSDSQASLTVPLSPQVVRSKAVSHRTISEDSIEVLSTCPSEALIPDDFKASYPSAINEEESYPDGNEGAIRFQASISPPELGETEEGSIENTPSQIDSSCCIGKESDGQLVLPSTPAHTHSDEDGVVSSPPQRHRQKDQGFRVDFSVENANPSSRDNSCEGFPAYELDPSHLLASRDISKTSLDNYSDTTSYVSSVASTSSDRIPSAYPAGLSSDRHKKRAGQNALKFIRQYPFAHPAIYSLLSGRTLVVLGEDEAIVRKLVTALAIFVPSYGCYAKPVKHWASSPLHIMDFQKWKLIGLQRVASPAGAGTLHALSRYSRYTSILDLDNKTLRCPLYRGTLVPRLADHRTQIKRGSTYYLHVQSMLTQLCSKAFLYTFCHHLHLPTHDKETEELVASRQMSFLKLTLGLVNEDVRVVQYLAELLKLHYMQESPGTSHPMLRFDYVPSFLYKI [SMCR8]”, the “solubility change mitosis (log2)” value in the data set on HeLa Kyoto [1] was determined as 0.0252. In the data set with HeLa Kyoto [2], the “solubility in G1/S (log2)” value was -0.0823.

Regarding “MKDVDNLKSIKEEWVCETGSDNQPLGNNQQSNCEYFVDSLFEEAQKVSSKCVSPAEQKKQVDVNIKLWKNGFTVNDDFRSYSDGASQQFLNSIKKGELPSELQGIFDKEEVDVKVEDKKNEICLSTKPVFQPFSGQGHRLGSATPKIVSKAKNIEVENKNNLSAVPLNNLEPITNIQIWLANGKRIVQKFNITHRVSHIKDFIEKYQGSQRSPPFSLATALPVLRLLDETLTLEEADLQNAVIIQRLQKTASFRELSEH [UBXN2A]”, the “solubility change mitosis (log2)” value with HeLa Kyoto [1] is 0.0265. Besides, in the data set on HeLa Kyoto [2], the “solubility in G1/S (log2)” value came out at 0.0566.

Take “MKFVYKEEHPFEKRRSEGEKIRKKYPDRVPVIVEKAPKARIGDLDKKKYLVPSDLTVGQFYFLIRKRIHLRAEDALFFFVNNVIPPTSATMGQLYQEHHEEDFFLYIAYSDESVYGL [GABARAP]”: the “solubility change mitosis (log2)” value in the data set with HeLa Kyoto [1] was -0.0822. In the data set on HeLa Kyoto [2], the “solubility in G1/S (log2)” value stood at 0.16.
